This note sets out measurements from a protein production outcome set (Wang et al. 2014).

A short description of this series: label from the status in PepcDB records.
With “LVKETACAVVDKLKSGEVTPIEVLDVLEERIAEVDGAINALPTLCFDRARGHAAELMKKPPAERGLLAGLPVPIKDLTAVAGVLTTQGSPIYKDNVPARSDLMVEHLEGNGGVVYAKSNTPEFGAGANTFNEVFGATRNPWDLSRSAAGSSGGAAAALASGTAWLAHGSDMGGSLRNPASFCGIVGLRPSFGRVAHTPAAKIDRNLGVQGPMARNVEDVALLLDAMSGEYAADPLSIPSPATSFLAAARSRQKPLRVAYSPDLGITPVDPEVAAVTRKAAERFAEAGVIVEQAQPDLSEAHECFQALRAFDFAISKADLLRTKRDLLKPEVIWNIEQGLKLSVDDLAKAEAQRVAMTARTIEFFKTYDLLLCPATITAPFPVEQRYLAECNGHTFGNYVEWLGIVYAITLVCCPALSLPCGFTATGLPIGLQMVARPRNEAGLLAGAALLEDILGLKSTTP”, the protein production entry is given as “failed”.

“LVVSEARFRAAIDAVQGVLWTNNASGKMVGEQPGWSALTGQIREEYEGVGWTKVVHPDDVEPTLSAWLAAVAEKRTFEFEHRVRRHDGVWRDCLIRAVPLIGDNGEIREWVGVHTDISEQKAAAEK”: the protein production result is “failed”.

Turning to “MAAAGEEYSSDKIEERSLAAIDSMIDPDISGPMRHIVVKAIHAAGDFAIAPLIRYSDGFFKSMLAKLKEGCTIICDSEMVRAGIYSRPVLERNRVVCYLNDVRSKEMADVNGITRSAAGIRIAMQDHRNSVIVIGNAPTALLEAMRMIEENGWYDIPIVGIPVGFINASKAKEGLVSSHIEYISVEGHRGGSPIAASIVNGFGRFLA”, the protein production entry is given as “not failed”.

For “MAAAMVPGRSESWERGEPGRPALYFCGSIRGGREDRTLYERIVSRLRRFGTVLTEHVAAAELGARGEEAAGGDRLIHEQDLEWLQQADVVVAEVTQPSLGVGYELGRAVAFNKRILCLFRPQSGRVLSAMIRGAADGSRFQVWDYEEGEVEALLDRYFEADPPGQVAASPDPTT”, the protein production result is “failed”.

With “MAADPASAPVLLHPRRAMVLAAGLGLRMRPLTETMPKPLVAIHDKPLIDWALDHLATAGVEEAVVNLHHLPEMLEAHLQGRATPRIHFSDETGQRLETGGGVRKALPHLGDDPFYVLNSDVLWLNGTIPALDRLAAAWDPETMDALLLLHPLAAAHGYEGLGDFDLDPLGRPTRRAEMHMAPFIFTGVQILHPRLFDDAPEGPFSLNVLYDRALSEDRLAAIVHDGEWYHVGTPQALVHTETILGQHSSMSDQLEHHHHHH”, the protein production entry was “failed”.

For the sequence “MAAEIGSDSQLKRRRRRDPEGSEKTELSEREPALAVEGREENDDENEERWVGPLPVEATLAKKRKVLEFERVYLENLPSASMYERSYMHRDVITHVVCTKTDFIITASHDGHVKFWKKIEEGIEFVKHFRSHLGIIESIAVSSEGALFCSVGDDKAMKVFDVVNFDMINMLKLGYFPGQCEWIYCPGDAISSVAASEKSTGKIFIYDGRGDNQPLHIFDKLHVSPLTQIRLNPVYKAVVSSDKSGMIEYWTGPPHEYKFPKTVNWEYKTDTDLYEFAKCKAYPTSICFSPDGKKIATIGSDRKVRIFRFLTGKLMRVFDESLSMFTELQQMRQQLPDMEFGRRMAVERELEKVDAVRLINIVFDETGHFVLYGTMLGIKVINVETNRCVRILGKQENIRVMQLALFQGIAKKHRAAATIEMKASENPVLQNIQADPTIVCTSFKKNRFYMFTKREPEDTKSADSDRDVFNEKPSKEEVMAATQAEGPKRVSDSAIVHTSMGDIHIKLFPVECPKTVENFCVHSRNGYYNGHTFHRIIKGFMIQTGDPTGTGMGGESIWGGEFEDEFHSTLRHDRPYTLSMANAGSNTNGSQFFITVVPTPWLDNKHTVFGRVTKGMEVVQRISNVKVNPKTDKPYEDVSIINITVK”, the protein production entry was “failed”.

“MAAEPLTELEESIETVVTTFFTFARQEGRKDSLSVNEFKELVTQQLPHLLKDVGSLDEKMKSLDVNQDSELKFNEYWRLIGELAKEIRKKKDLKIRKK”: the protein production result was “not failed”.

Take “MAAFVRDYLEASVENETDGGRMRWYPWHSAEYRFTHIMNVVDIAERIAEATSANVDVVRVAALFHDIAKLEAEQDAHAEEGARIARKYLETHGQFPPSFVDQVAEAVSRHSYQGDLMDLPLEARCLVEADLLDKAGANGAALMLLRMGYEARTHVDAAEMIQRVLDRGEDAAERVESDAASSIAHRRLKRVRWLHDWLTSEVPAMNDTGY”: the protein production result is “failed”.

On to “MAAGFFQAEMSILSSTLARSYSLPIRKTLMTFDFRIAMQRNPCLRIRRSCVAAFSSTPSHSRNFPIRGLEDVFVGYLFGRKKATEVAHVVWEQVIQKGDTVIDATCGNGNDTLAMLKMVMHDSVGCGGYVYAMDIQKDAIESTSSLLDQAVGSKEKECVKLFNLCHSKMGEIVPENARVRMVAFNLGYLPGGNKSIITLSDTTLSALKAAERILKPGGLISLVVYIGHPGGREELEVVEAFGSGLPVSDWICCKFQMLNRPLAPVLVFMFKREN”, for which the protein production result is on record as “failed”.

In the case of “MAAITEFLPKEYGYVVLVLVFYCFLNLWMGAQVGRARKRYNVPYPTLYAIESENKDAKLFNCVQRGHQNSLEMMPMYFILMILGGMKHPCICTGLGLLYNVSRFFYFKGYATGDPMKRLTIGKYGFLGLLGLMICTISFGVTLILA”, the protein production result is on record as “failed”.

For “MAAKICNRKNCKRSVQKMRIRSLLIILTIGLLLVNAICVSALGQTSESIARGDVYFGLMRYRDAIAWYKLDSTKAEAQWKIARAYVCYGDNAVPAEKEYNFRNAVRAANKCIELEETNANGHTWLAAALGNTAMYEGSKTKVRLCTQIKKELNRAIALNPKDDIAYSILGSFYREIGNISWLEKQLAMTFIGKIPDGTYEDSEKAFAKAIALNPTIMRHWYEQGLLYKYWNKNEQAIASFNKAKACPVFVSSDNKRLAAIEVYLKNLQ”, the protein production entry is “failed”.

Turning to “MAAKPGIPKGTRDFSPVEMAKRNYIFNTIRDVFHLFGYQQIETPSMENLSTLMGKYGDEGDKLLFKIQNSGDYFNGITDEELLSRNAVKLASKFCEKGLRYDLTVPFARYVVMHRDEISFPFKRYQIQPVWRADRPQKGRYREFYQCDADVVGSNSLLNEVELVQMIDRVFGKFGVRVSIKINNRKILTGIAEIIGEADKIVDITVAIDKLDKIGLENVNAELASKGIPQEAIDKLQPIILLSGSNEEKLETLKTVLATSEAGLKGVEESEFILKTVSALGVKSEVELDLTLARGLNYYTGAIFEVKALDVQIGSISGGGRYDNLTGVFGMDGMSGVGISFGADRIFDVLNQLDLYPKE”, the protein production result is “not failed”.

For “MAALAEEQTEVAVKLEPEGPPTLLPPQAGDGAGEGSGGTPNNGPNGGGGGNVAVAAAAGGDGGTPKPGVAVSAAAPAGAAPVPAAPAEAGAPHDRQTLLAVLQFLRQSNLREAEEALRREARLLEEAVAGSGAPGELDGAGAEAASALLSRVTASVPGSAAPEPPGTGASVTSVFSGSASGPAAPGKVASVAVEDQPDVSAVLSAYNQQGDPTMYEEYYSGLKHFIECSLDCHRAELSQLFYPLFVHMYLELVYNQHENEAKSFFEKFHGDQECYYQDDLRVLSSLTKKEHMKGNETMLDFRTSKFVLRISRDSYQLLKRHLQEKQNNQIWNIVQEHLYIDIFDGMPRSKQQIDAMVGSLAGEAKREANKSKVFFGLLKEPEIEVPLDDEDEEGENEEGKPKKKKPKKDSIGSKSKKQDPNAPPQNRIPLPELKDSDKLDKIMNMKETTKRVRLGPDCLPSICFYTFLNAYQGLTAVDVTDDSSLIAGGFADSTVRVWSVTPKKLRSVKQASDLSLIDKESDDVLERIMDEKTASELKILYGHSGPVYGASFSPDRNYLLSSSEDGTVRLWSLQTFTCLVGYKGHNYPVWDTQFSPYGYYFVSGGHDRVARLWATDHYQPLRIFAGHLADVNCTRFHPNSNYVATGSADRTVRLWDVLNGNCVRIFTGHKGPIHSLTFSPNGRFLATGATDGRVLLWDIGHGLMVGELKGHTDTVCSLRFSRDGEILASGSMDNTVRLWDAVKAFEDLETDDFTTATGHINLPENSQELLLGTYMTKSTPVVHLHFTRRNLVLAAGAYSPQ”, the protein production entry was “failed”.

As to “MAAMPKPAAFWNDRFANEEYVYGEAPNRFVASAARTWLPEAGEVLLLGAGEGRNAVHLAREGHTVTAVDYAVEGLRKTERLATEAGVEVEAIQADVREWKPARAWDAVVVTFLHLPADERPGLYRLVQRCLRPGGRLVAEWFRPEQRTDGYTSGGPPDPAMMVTADELRGHFAEAGIDHLEAAEPTLDEGMHRGPAATVRLVWCRPSTSLEHHHHHH”, the protein production entry is listed as “not failed”.

“MAANMYRVGDYVYFENSSSNPYLIRRIEELNKTANGNVEAKVVCFYRRRDISSTLIALADKHATLSVCYKAGPGADNGEEGEIEEEMENPEMVDLPEKLKHQLRHRELFLSRQLESLPATHIRGKCSVTLLNETESLKSYLEREDFFFYSLVYDPQQKTLLADKGEIRVGNRYQADITDLLKEGEEDGRDQSRLETQVWEAHNPLTDKQIDQFLVVARSVGTFARALDCSSSVRQPSLHMSAAAASRDITLFHAMDTLHKNIYDISKAISALVPQGGPVLCRDEMEEWSASEANLFEEALEKYGKDFTDIQQDFLPWKSLTSIIEYYYMWKTTDRYVQQKRLKAAEAESKLKQVYIPNYNKPNPNQISVNNVKAGVVNGTGAPGQSPGAGRACESCYTTQSYQWYSWGPPNMQCRLCASCWTYWKKYGGLKMPTRLDGERPGPNRSNMSPHGLPARSSGSPKFAMKTRQAFYLHTTKLTRIARRLCREILRPWHAARHPYLPINSAAIKAECTARLPEASQSPLVLKQAVRKPLEAVLRYLETHPRPPKPDPVKSVSSVLSSLTPAKVAPVINNGSPTILGKRSYEQHNGVDGNMKKRLLMPSRGLANHGQARHMGPSRNLLLNGKSYPTKVRLIRGGSLPPVKRRRMNWIDAPDDVFYMATEETRKIRKLLSSSETKRAARRPYKPIALRQSQALPPRPPPPAPVNDEPIVIED”: the protein production entry is on record as “failed”.

As to “MAAPLRIQSDWAQALRKDEGEAWLSCHPPGKPSLYGSLTCQGIGLDGIPEVTASEGFTVNEINKKSIHISCPKENASSKFLAPYTTFSRIHTKSITCLDISSRGGLGVSSSTDGTMKIWQASNGELRRVLEGHVFDVNCCRFFPSGLVVLSGGMDAQLKIWSAEDASCVVTFKGHKGGILDTAIVDRGRNVVSASRDGTARLWDCGRSGCLGVLADCGSSINGVAVGAADNSINLGSPEQMPSEREVGTEAKMLLLAREDKKLQCLGLQSRQLVFLFIGSDAFNCCTFLSGFLLLAGTQDGNIYQLDVRSPRAPVQVIHRSGAPVLSLLSVRDGFIASQGDGSCFIVQQDLDYVTELTGADCDPVYKVATWEKQIYTCCRDGLVRRYQLSDL”, the protein production result is “failed”.

Turning to “MAAQALLSVGERRLLRGVDEQRALGAALARALAPGSVLFLEGELGAGKTTLTQGLLAALGFDGHVTSPTYALMQLYPASAGQVLHVDAYRVRDVAELYEMDLDELIAGSRLSVIEWGEGLYADYPQAPIYLFEHVEGDPETRRVTRRRLEHHHHHH”, the protein production result is on record as “failed”.

On to “MAASLRSFLEQLKRQNSLYLVKKPVNPRFELGALLKKTKGTVPMFFQNIEGYDVPAVGGIVGTRENFAQALRINKSELLAKITEAITNPGETRLLPSGPVQENVLTKGFDIGKMFPIPTFHEKDSGAFITAGIVVAKDPIYGRRFTSIRRMQLNGPNNLSILIESPGLIEQYYEFERRGQAMEVAIVLGVHPAITLSSQLPTQTFGLDKYNVASRLIGEPLPVVKCKTIDLEVPADAEIVLEGRMLPYVRHPEGPFGELMGYYGPQTMQPVVEVTAVTFRNNPIFQVIFPSSYEHKLPNALMREVVLFNHVRHVVPTVQDVHLTMAGGGRCHAIISIKKTAEGQGKQAIFAALASNKDVKHVVVVNDDVDIFDPEDVEWAIATRVQADQDIIIIPGAQGTPLEPSHNLRGVSAKMGIDATYPLAEEERFARTQIPGYDQIRLEDYLTLDW”, for which the protein production entry is given as “not failed”.

As for “MAASTDIAGLEESFRKFAIHGDPKASGQEMNGKNWAKLCKDCKVADGKAVTGTDVDIVFSKVKAKSARVINYEEFKKALEELATKRFKGKSKEEAFDAICQLIAGKEPANIGVTKAKTGGAVDRLTDTSKYTGSHKER”, the protein production result is “not failed”.
